Among the data in publication PMC6726835 (Cancer Science, 2019) are Kd values, retold here.

Sequences and labels used below:
B1: Antihuman MSLN His-Tag scFv clone H1a050 (scFv, V domains shown)
VH: EVQLVQSGGGLVQPDRSLRLSCAASGFTFDDYAMHWVRQAPGKGLEWVSGISWNSGSIGYADSVKGRFTISRDNAKNSLYLQMNSLRAEDTALYYCAKDLGSYYGSGSGMDVWGQGTTVTVSS
VL: SYELTQPPSVSVSPGQTARITCSGNALPKQYAYWYQQKPGQAPVLMIYKDSERPSGIPERFSGSSSGTTVTLTISGVQAEDEADYYCQSADSSHTYKVFGGGTKLTVL
B2: 89Zr-DFO-scFv H1a050 (scFv, V domains shown)
VH: B1 VH
VL: B1 VL
B3: DFO-conjugated His-Tag scFv clone H1a050 (scFv, V domains shown)
VH: B1 VH
VL: B1 VL
B4: 89Zr-DFO-scFv H2a064 (scFv, V domains shown)
VH: QVQLVQSGGGLVQPGRSLRLSCAASGFTFDDYAMHWVRQAPGKGLEWVSGISWNSGSIGYADSVKGRFTISRDNAKNSLYLQMNSLRAEDTALYYCAKDIGSSGWYGAFDIWGQGTTVTVSS
VL: SYELTQPPSVSVSPGQTARITCSGDALPKHYASWYQQKPGQAPVLLIYKDTERPSGIPERFSGSSSGTTVTLTISGVQAEDEADYYCQSADSSVTVVFGGGTKLTVL
B5: Antihuman MSLN His-Tag scFv clone H2a064 (scFv, V domains shown)
VH: B4 VH
VL: B4 VL
B6: DFO-conjugated His-Tag scFv clone H2a064 (scFv, V domains shown)
VH: B4 VH
VL: B4 VL

This assay concerns the target Recombinant soluble form (amino acids 297-580) of human mesothelin (r-MSLN) (Homo sapiens, UniProt Q13421). The experiment in a line: BLI.
What is called Kd is the constant that tells how readily two partners part at equilibrium. Regarding B1, the Kd amounted to 4.68 nM. Take B2: the Kd worked out at 46.2 nM. For the molecule B3, the Kd turned out to be 3.38 nM.

B4: the Kd came to 78.2 nM.

Take B5: the Kd was 59.6 nM.

Regarding B6, the Kd was found to be 114 nM.
